The test system of assay [1] is central trigeminovascular neurons in the medullary dorsal horn. As to the kind of experiment: Activation of central trigeminovascular neurons by picrotoxin-induced seizure. The assay is classed as in vivo, rat. The conditions noted are these: 30 mg/kg intravenously four hours before induction of seizure. An excerpt: Cortical electrodes were used to trace the magnitude, extent and progression of epileptiform seizures.
Surgical preparation and single-unit recording. Single-unit recordings were obtained from neurons in the trigeminal ganglion and dorsal horn as described in previous studies (Burstein et al. (1998) J. Neurophysiol. 79: 964-82; Strassman and Levy (2006) J. Neurophysiol. 95: 1298-306; Strassman et al. (1996) Nature 384: 560-4; Zhang et al. (2010) J. Neurosci. 30: 8807-14; and Zhang et al. (2011) Ann. Neurol. 69: 855-65). Experiments were done in adult Sprague-Dawley rats (250 g to 350 g). Animals were anesthetized with urethane (1.2-1.5 g/kg), artificially ventilated with oxygen, and paralyzed. Body temperature was controlled, and end-tidal CO2 and oxygen saturation was monitored. For ganglion recordings, four separate craniotomies were made: over the contralateral cortex, to advance the microelectrode; over the ipsilateral parietal cortex, and the ipsilateral occipital cortex, for application of the picrotoxin and recording of electrocorticogram activity; and over the ipsilateral transverse sinus, for electrical and mechanical stimulation of dural afferents, and lidocaine application. For dorsal horn recording, the same craniotomies were made over the ipsilateral cortex and the ipsilateral transverse sinus, but no contralateral craniotomy was made. Instead, a laminectomy was made to expose the upper cervical spinal cord (C1-2) for microelectrode recording. In both the trigeminal ganglion and the dorsal horn recording experiments, the search stimulus for finding dura-sensitive neurons is single-shock electrical stimulation applied to the dura covering the transverse sinus.
Seizure induction and electrocorticogram recording. […] For verification of seizure induction, cortical activity was recorded with a glass micropipette (0.9% saline, ˜1 megohm, 7 μm tip) placed just below the surface of the cerebral cortex, at the parietal and the occipital site. […]

The test system of assay [2] is wide-dynamic range (WDR) trigeminovascular neurons. Description: Activation of central trigeminovascular neurons by cortical spreading depression (CSD), WDR neurons. The assay is classed as in vivo, rat. On the procedure: Cortical spreading depression (CSD) was induced mechanically by inserting a glass micropipette (tip diameter 25 μm) about 1 mm into the visual cortex for 10 sec. At a propagation rate of 3-5 mm/min, a single wave of CSD was expected to enter the neuronal receptive field within 1-2 min of cortical stimulation. For verification of CSD, cortical activity was recorded (electrocorticogram) with a glass micropipette (0.9% saline, ˜1 megohm, 7 um tip) placed just below the surface of the cerebral cortex (approximately 100 μm). The electrocorticogram electrode was positioned about 6 mm anterior to the visual cortex. […]
The experimental protocol included two parts. […] In the first part, the baseline neuronal profile was established by (a) mapping the dural, cutaneous and corneal receptive field; (b) measuring responses (mean spikes/sec) to mechanical stimulation of the dura (with a fixed force), skin (brush, pressure, pinch) and cornea (brush), and (c) measuring spontaneous firing rate (recorded over 30 min prior to treatment). […] In the second part, CSD was induced 4 hours after administration of CGRP-mAb or isotype-conAb and 2 hours later (i.e., 6 hours after treatment) receptive field size, spontaneous activity rate, and response magnitude to stimulation of the dura, skin and cornea were measured again. […]

B1: fremanezumab (antibody)
heavy: EVQLVESGGGLVQPGGSLRLSCAASGFTFSNYWISWVRQAPGKGLEWVAEIRSESDASATHYAEAVKGRFTISRDNAKNSLYLQMNSLRAEDTAVYYCLAYFDYGLAIQNYWGQGTLVTVSSASTKGPSVFPLAPCSRSTSESTAALGCLVKDYFPEPVTVSWNSGALTSGVHTFPAVLQSSGLYSLSSVVTVPSSNFGTQTYTCNVDHKPSNTKVDKTVERKCCVECPPCPAPPVAGPSVFLFPPKPKDTLMISRTPEVTCVVVDVSHEDPEVQFNWYVDGVEVHNAKTKPREEQFNSTFRVVSVLTVVHQDWLNGKEYKCKVSNKGLPSSIEKTISKTKGQPREPQVYTLPPSREEMTKNQVSLTCLVKGFYPSDIAVEWESNGQPENNYKTTPPMLDSDGSFFLYSKLTVDKSRWQQGNVFSCSVMHEALHNHYTQKSLSLSPGK
light: EIVLTQSPATLSLSPGERATLSCKASKRVTTYVSWYQQKPGQAPRLLIYGASNRYLGIPARFSGSGSGTDFTLTISSLEPEDFAVYYCSQSYNYPYTFGQGTKLEIKRTVAAPSVFIFPPSDEQLKSGTASVVCLLNNFYPREAKVQWKVDNALQSGNSQESVTEQDSKDSTYSLSSTLTLSKADYEKHKVYACEVTHQGLSSPVTKSFNRGEC
notes: humanized anti-CGRP antagonist antibody, vectors ATCC PTA-6867 and PTA-6866
In the case of B1, in assay [1], the “neurons activated by the seizure” value stood at 15% and the “neurons activated by the seizure (activated/tested)” value is reported as 2/13. Further, the “activation of central trigeminovascular neuron by seizure” value in assay [1] (FIG. 24) is “prevented the activation of a central trigeminovascular neuron”. Besides, the “difference in WDR neurons activated by CSD versus isotype-conAb” value in assay [2] (5/13 versus 4/10) amounted to 2%. Further, the “WDR neurons activated by CSD (case-by-case analysis)” value in assay [2] (male and female rats, activated/tested) was 5/13.

The values are drawn from patent US10766952B2, “Methods for reducing migraine frequency in a subject in need thereof” (Beth Israel Deaconess Medical Center, Inc., priority 2017, dated 2020).
